In the Human Domainome abundance scans (Beltran et al. 2025):

B1: Homeobox protein cut-like 1, residues 548 to 629; numbered along this chain, P39880 (parent)
chain: GEEMDTAEIARQVKEQLIKHNIGQRIFGHYVLGLSQGSVSEILARPKPWNKLTVRGKEPFHKMKQFLSDEQNILALRSIQGR

Variants of: B1
Test: abundance fitness (aPCA) (normalised: wild type 0, dead -1); higher = more abundant; growth selection in yeast, the domain comes from the species named
Conditions: Homo sapiens

Abundance fitness: each site, then its substitutions
R45: I -0.361 | L -0.274 | A 0.03 | H 0.103 | T -0.003 | E -0.009 | N -0.002 | C -0.001 | V -0.228
F27: R -0.884 | I -0.8 | G -0.894 | H -1.14 | N -0.787 | K -0.99 | L -0.47 | M -0.857 | P -0.861 | V -0.815 | Q -0.747 | T -0.914 | W -0.572 | Y -1.15 | S -0.906
V31: T -0.488 | N -0.713 | D -0.839 | K -1.04 | Y -0.2 | M -0.431 | C -0.179 | E -0.681 | W -0.133 | H -0.988 | Q -0.882 | R -0.947 | L -0.391 | S -0.806 | G -0.766
G37: L -0.022 | K 0.091 | V -0.051 | T 0.063 | W -0.057 | C -0.013 | F -0.075 | N -0.016 | R 0.029 | E 0.136 | M 0.002 | H 0.006 | Y -0.034 | Q 0.092 | A 0.037 | S 0.024 | I -0.17 | P -0.084
P46: D -0.854 | F -0.725 | E -0.779 | A -0.346
G28: T -0.47 | K -0.745 | Y -0.374 | A 0.018 | S -0.05 | R -0.52 | W -0.764 | C -0.223 | I -0.233 | M -0.241 | H -0.485 | F -0.329 | N -0.259 | Q -0.457 | E -0.188 | P -0.726 | V -0.452 | D -0.349
S38: K 0.061 | N -0.027 | Y -0.112 | W -0.273
